T1: RAPGEF6, Q8TEU7
T1 sequence (Q8TEU7 525-625, limits assumed, looked up): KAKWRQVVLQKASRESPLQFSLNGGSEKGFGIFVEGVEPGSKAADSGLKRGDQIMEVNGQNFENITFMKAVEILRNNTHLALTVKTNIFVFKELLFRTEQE

T2: PDZD2_2, O15018
T2 sequence (O15018 329-429, limits assumed, looked up): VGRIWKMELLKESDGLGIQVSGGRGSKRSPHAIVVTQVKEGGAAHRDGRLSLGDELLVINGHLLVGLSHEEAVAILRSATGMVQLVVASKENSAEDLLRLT

T3: MPDZ_12, O75970
T3 sequence (O75970 1857-1958, limits assumed, looked up): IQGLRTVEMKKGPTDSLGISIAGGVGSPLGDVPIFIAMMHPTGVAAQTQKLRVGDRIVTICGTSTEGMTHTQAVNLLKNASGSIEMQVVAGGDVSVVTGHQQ

T4: MPDZ_5, O75970
T4 sequence (O75970 695-796, limits assumed, looked up): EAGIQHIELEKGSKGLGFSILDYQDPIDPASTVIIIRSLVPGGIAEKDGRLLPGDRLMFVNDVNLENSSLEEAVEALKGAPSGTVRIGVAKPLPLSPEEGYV

T5: TIAM2, Q8IVF5
T5 sequence (Q8IVF5 885-986, limits assumed, looked up): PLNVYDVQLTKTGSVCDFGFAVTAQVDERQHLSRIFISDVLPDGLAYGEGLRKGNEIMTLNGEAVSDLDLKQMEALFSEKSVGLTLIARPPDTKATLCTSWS

T6: APBA1_1, Q02410
T6 sequence (Q02410 651-752, limits assumed, looked up): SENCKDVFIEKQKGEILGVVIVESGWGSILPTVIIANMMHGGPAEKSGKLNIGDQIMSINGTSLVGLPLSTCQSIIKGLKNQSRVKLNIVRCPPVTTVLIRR

T7: RHPN1, Q8TCX5
T7 sequence (Q8TCX5 508-602, limits assumed, looked up): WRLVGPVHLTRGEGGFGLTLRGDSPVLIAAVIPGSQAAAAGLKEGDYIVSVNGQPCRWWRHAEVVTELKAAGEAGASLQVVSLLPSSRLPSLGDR

T8: GRIP1_2, Q9Y3R0
T8 sequence (Q9Y3R0 145-248, limits assumed, looked up): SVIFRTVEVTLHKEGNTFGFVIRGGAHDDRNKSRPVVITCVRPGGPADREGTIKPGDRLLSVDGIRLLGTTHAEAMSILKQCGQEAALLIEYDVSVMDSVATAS

T9: PTPN13_1, Q12923
T9 sequence (Q12923 1088-1188, limits assumed, looked up): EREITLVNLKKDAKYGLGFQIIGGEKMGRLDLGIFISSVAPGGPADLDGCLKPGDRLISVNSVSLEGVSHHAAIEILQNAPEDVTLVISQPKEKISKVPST

T10: LNX2_3, Q8N448
T10 sequence (Q8N448 463-564, limits assumed, looked up): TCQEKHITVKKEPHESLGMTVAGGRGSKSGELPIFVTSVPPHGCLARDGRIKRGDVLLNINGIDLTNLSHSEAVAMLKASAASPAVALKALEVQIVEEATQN

B1: JAM2, P57087 (peptide)
chain: DFKHTKSFII

molecular target: DLG2_3, Q15700; test: holdup assay; parameters: key: below the threshold = too weak to quantify, mostly under pKd 3.1 to 4; settings: plain residues with an end cap or a label only (N-terminal biotin on a linker: ado-ado)

Row | pKd | Binder
1 | 3.75 | B1

molecular target: MAGI2_2, Q86UL8; test: holdup assay; parameters: key: below the threshold = too weak to quantify, mostly under pKd 3.1 to 4; settings: plain residues with an end cap or a label only (N-terminal biotin on a linker: ado-ado)
Sequence (Q86UL8 410-522): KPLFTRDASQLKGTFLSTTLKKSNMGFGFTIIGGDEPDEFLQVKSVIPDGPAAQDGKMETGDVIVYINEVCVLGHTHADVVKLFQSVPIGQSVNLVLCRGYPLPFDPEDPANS

Row | pKd | Binder
2 | below the threshold | B1

molecular target: T1, RAPGEF6, Q8TEU7; test: holdup assay; parameters: key: below the threshold = too weak to quantify, mostly under pKd 3.1 to 4; settings: plain residues with an end cap or a label only (N-terminal biotin on a linker: ado-ado)

Row | pKd | Binder
3 | below the threshold | B1

molecular target: T2, PDZD2_2, O15018; test: holdup assay; parameters: key: below the threshold = too weak to quantify, mostly under pKd 3.1 to 4; settings: plain residues with an end cap or a label only (N-terminal biotin on a linker: ado-ado)

Row | pKd | Binder
4 | 3.87 | B1

molecular target: DLG4_1, P78352; test: holdup assay; parameters: key: below the threshold = too weak to quantify, mostly under pKd 3.1 to 4; settings: plain residues with an end cap or a label only (N-terminal biotin on a linker: ado-ado)
Sequence (P78352 62-152): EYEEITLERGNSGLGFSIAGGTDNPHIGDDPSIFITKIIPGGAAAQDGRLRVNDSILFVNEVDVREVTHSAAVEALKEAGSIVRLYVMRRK

Row | pKd | Binder
5 | below the threshold | B1

molecular target: T3, MPDZ_12, O75970; test: holdup assay; parameters: key: below the threshold = too weak to quantify, mostly under pKd 3.1 to 4; settings: plain residues with an end cap or a label only (N-terminal biotin on a linker: ado-ado)

Row | pKd | Binder
6 | below the threshold | B1

molecular target: HTRA2, O43464; test: holdup assay; parameters: key: below the threshold = too weak to quantify, mostly under pKd 3.1 to 4; settings: plain residues with an end cap or a label only (N-terminal biotin on a linker: ado-ado)
Sequence (O43464 355-458): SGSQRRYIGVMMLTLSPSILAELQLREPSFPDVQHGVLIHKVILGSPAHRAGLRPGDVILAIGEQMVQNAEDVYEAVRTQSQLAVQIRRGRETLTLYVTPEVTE

Row | pKd | Binder
7 | 3.88 | B1

molecular target: SNX27, Q96L92; test: holdup assay; parameters: key: below the threshold = too weak to quantify, mostly under pKd 3.1 to 4; settings: plain residues with an end cap or a label only (N-terminal biotin on a linker: ado-ado)

Row | pKd | Binder
8 | below the threshold | B1

molecular target: MAST2, Q6P0Q8; test: holdup assay; parameters: key: below the threshold = too weak to quantify, mostly under pKd 3.1 to 4; settings: plain residues with an end cap or a label only (N-terminal biotin on a linker: ado-ado)
Sequence (Q6P0Q8 1099-1202): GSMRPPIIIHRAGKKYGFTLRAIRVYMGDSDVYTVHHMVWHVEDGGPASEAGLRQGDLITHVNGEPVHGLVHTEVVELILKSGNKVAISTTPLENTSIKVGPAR

Row | pKd | Binder
9 | below the threshold | B1

molecular target: T4, MPDZ_5, O75970; test: holdup assay; parameters: key: below the threshold = too weak to quantify, mostly under pKd 3.1 to 4; settings: plain residues with an end cap or a label only (N-terminal biotin on a linker: ado-ado)

Row | pKd | Binder
10 | below the threshold | B1

molecular target: LAP2, Q96RT1; test: holdup assay; parameters: key: below the threshold = too weak to quantify, mostly under pKd 3.1 to 4; settings: plain residues with an end cap or a label only (N-terminal biotin on a linker: ado-ado)
Sequence (Q96RT1 other isoform, or with tags, fused parts or gaps): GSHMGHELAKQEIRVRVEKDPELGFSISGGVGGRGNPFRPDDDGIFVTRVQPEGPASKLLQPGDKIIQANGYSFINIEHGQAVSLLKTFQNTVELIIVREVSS

Row | pKd | Binder
11 | below the threshold | B1

molecular target: PARD3_3, Q8TEW0; test: holdup assay; parameters: key: below the threshold = too weak to quantify, mostly under pKd 3.1 to 4; settings: plain residues with an end cap or a label only (N-terminal biotin on a linker: ado-ado)
Sequence (Q8TEW0 582-685): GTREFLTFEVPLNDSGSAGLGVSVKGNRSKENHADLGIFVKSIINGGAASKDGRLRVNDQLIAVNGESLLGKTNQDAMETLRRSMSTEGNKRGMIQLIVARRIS

Row | pKd | Binder
12 | 4.42 | B1

molecular target: FRMPD3, Q5JV73; test: holdup assay; parameters: key: below the threshold = too weak to quantify, mostly under pKd 3.1 to 4; settings: plain residues with an end cap or a label only (N-terminal biotin on a linker: ado-ado)
Sequence (Q5JV73 12-100): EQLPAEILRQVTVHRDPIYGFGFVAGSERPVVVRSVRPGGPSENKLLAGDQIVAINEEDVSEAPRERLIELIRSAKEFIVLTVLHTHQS

Row | pKd | Binder
13 | below the threshold | B1

molecular target: Inadl_1, Q8NI35; test: holdup assay; parameters: key: below the threshold = too weak to quantify, mostly under pKd 3.1 to 4; settings: plain residues with an end cap or a label only (N-terminal biotin on a linker: ado-ado)
Sequence (Q8NI35 113-229): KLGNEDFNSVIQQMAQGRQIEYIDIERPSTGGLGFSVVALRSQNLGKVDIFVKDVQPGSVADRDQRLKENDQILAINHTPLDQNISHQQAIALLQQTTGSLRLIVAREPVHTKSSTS

Row | pKd | Binder
14 | below the threshold | B1

molecular target: NOS1, P29475; test: holdup assay; parameters: key: below the threshold = too weak to quantify, mostly under pKd 3.1 to 4; settings: plain residues with an end cap or a label only (N-terminal biotin on a linker: ado-ado)
Sequence (P29475 9-101): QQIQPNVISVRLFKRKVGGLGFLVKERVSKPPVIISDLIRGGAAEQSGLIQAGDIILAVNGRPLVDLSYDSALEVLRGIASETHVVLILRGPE

Row | pKd | Binder
15 | 3.75 | B1

molecular target: DLG1_1, Q12959; test: holdup assay; parameters: key: below the threshold = too weak to quantify, mostly under pKd 3.1 to 4; settings: plain residues with an end cap or a label only (N-terminal biotin on a linker: ado-ado)

Row | pKd | Binder
16 | below the threshold | B1

molecular target: T5, TIAM2, Q8IVF5; test: holdup assay; parameters: key: below the threshold = too weak to quantify, mostly under pKd 3.1 to 4; settings: plain residues with an end cap or a label only (N-terminal biotin on a linker: ado-ado)

Row | pKd | Binder
17 | 4.19 | B1

molecular target: T6, APBA1_1, Q02410; test: holdup assay; parameters: key: below the threshold = too weak to quantify, mostly under pKd 3.1 to 4; settings: plain residues with an end cap or a label only (N-terminal biotin on a linker: ado-ado)

Row | pKd | Binder
18 | below the threshold | B1

molecular target: T7, RHPN1, Q8TCX5; test: holdup assay; parameters: key: below the threshold = too weak to quantify, mostly under pKd 3.1 to 4; settings: plain residues with an end cap or a label only (N-terminal biotin on a linker: ado-ado)

Row | pKd | Binder
19 | below the threshold | B1

molecular target: T8, GRIP1_2, Q9Y3R0; test: holdup assay; parameters: key: below the threshold = too weak to quantify, mostly under pKd 3.1 to 4; settings: plain residues with an end cap or a label only (N-terminal biotin on a linker: ado-ado)

Row | pKd | Binder
20 | below the threshold | B1

molecular target: T9, PTPN13_1, Q12923; test: holdup assay; parameters: key: below the threshold = too weak to quantify, mostly under pKd 3.1 to 4; settings: plain residues with an end cap or a label only (N-terminal biotin on a linker: ado-ado)

Row | pKd | Binder
21 | 3.52 | B1

molecular target: FRMPD2_1, Q68DX3; test: holdup assay; parameters: key: below the threshold = too weak to quantify, mostly under pKd 3.1 to 4; settings: plain residues with an end cap or a label only (N-terminal biotin on a linker: ado-ado)
Sequence (Q68DX3 770-861): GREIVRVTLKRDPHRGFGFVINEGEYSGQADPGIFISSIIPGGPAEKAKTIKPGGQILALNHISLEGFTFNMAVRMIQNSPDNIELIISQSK

Row | pKd | Binder
22 | 3.55 | B1

molecular target: NHERF4_1, Q86UT5-2; test: holdup assay; parameters: key: below the threshold = too weak to quantify, mostly under pKd 3.1 to 4; settings: plain residues with an end cap or a label only (N-terminal biotin on a linker: ado-ado)
Sequence (Q86UT5 other isoform, or with tags, fused parts or gaps): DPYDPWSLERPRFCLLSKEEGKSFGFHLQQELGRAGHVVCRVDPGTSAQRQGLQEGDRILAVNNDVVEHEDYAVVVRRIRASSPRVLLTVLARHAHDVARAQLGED

Row | pKd | Binder
23 | below the threshold | B1

molecular target: DLG4_3, P78352; test: holdup assay; parameters: key: below the threshold = too weak to quantify, mostly under pKd 3.1 to 4; settings: plain residues with an end cap or a label only (N-terminal biotin on a linker: ado-ado)
Sequence (P78352 306-403): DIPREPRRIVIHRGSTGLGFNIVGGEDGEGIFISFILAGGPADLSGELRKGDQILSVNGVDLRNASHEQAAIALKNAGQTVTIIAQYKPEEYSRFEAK

Row | pKd | Binder
24 | below the threshold | B1

molecular target: LNX1_2, Q8TBB1; test: holdup assay; parameters: key: below the threshold = too weak to quantify, mostly under pKd 3.1 to 4; settings: plain residues with an end cap or a label only (N-terminal biotin on a linker: ado-ado)
Sequence (Q8TBB1 371-470): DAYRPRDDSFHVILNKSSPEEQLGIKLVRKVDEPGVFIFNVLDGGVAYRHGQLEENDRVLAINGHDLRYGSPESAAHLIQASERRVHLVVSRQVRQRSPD

Row | pKd | Binder
25 | below the threshold | B1

molecular target: GRIP2_3, Q9C0E4; test: holdup assay; parameters: key: below the threshold = too weak to quantify, mostly under pKd 3.1 to 4; settings: plain residues with an end cap or a label only (N-terminal biotin on a linker: ado-ado)
Sequence (Q9C0E4 238-339): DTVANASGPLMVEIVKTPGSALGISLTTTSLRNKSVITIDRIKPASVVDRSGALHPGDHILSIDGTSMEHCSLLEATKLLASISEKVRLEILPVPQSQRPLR

Row | pKd | Binder
26 | below the threshold | B1

molecular target: T10, LNX2_3, Q8N448; test: holdup assay; parameters: key: below the threshold = too weak to quantify, mostly under pKd 3.1 to 4; settings: plain residues with an end cap or a label only (N-terminal biotin on a linker: ado-ado)

Row | pKd | Binder
27 | below the threshold | B1

molecular target: GRIP2_7, Q9C0E4; test: holdup assay; parameters: key: below the threshold = too weak to quantify, mostly under pKd 3.1 to 4; settings: plain residues with an end cap or a label only (N-terminal biotin on a linker: ado-ado)
Sequence (Q9C0E4 934-1023): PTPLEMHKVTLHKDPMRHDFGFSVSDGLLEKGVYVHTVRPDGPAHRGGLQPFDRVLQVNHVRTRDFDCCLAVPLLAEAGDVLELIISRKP

Row | pKd | Binder
28 | 3.88 | B1

Source: PMC9482650, “Quantitative fragmentomics allow affinity mapping of interactomes” (Nature Communications, 2022)
